Residue numbers refer to the chain shown, from its start.
T1: GFP-9S library array, motif 4 ND N98Y;D124Q (synthetic construct, N98Y;D124Q)
T1 chain: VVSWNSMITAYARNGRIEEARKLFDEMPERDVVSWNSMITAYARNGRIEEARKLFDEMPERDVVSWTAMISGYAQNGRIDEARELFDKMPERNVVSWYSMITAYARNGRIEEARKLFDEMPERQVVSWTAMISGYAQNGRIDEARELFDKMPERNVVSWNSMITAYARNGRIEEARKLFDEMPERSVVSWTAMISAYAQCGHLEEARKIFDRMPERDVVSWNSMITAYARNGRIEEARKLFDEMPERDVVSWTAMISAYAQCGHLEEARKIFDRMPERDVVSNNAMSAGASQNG

T2: GFP-9S library array, motif 4 ND N98K;D124L (synthetic construct, N98K;D124L)
T2 chain: T1 chain with Y98K, Q124L

T3: GFP-9S library array, motif 4 ND N98V;D124Q (synthetic construct, N98V;D124Q)
T3 chain: T1 chain with Y98V

T4: GFP-9S library array, motif 4 ND N98A;D124V (synthetic construct, N98A;D124V)
T4 chain: T1 chain with Y98A, Q124V

T5: GFP-9S library array, motif 4 ND N98P;D124P (synthetic construct, N98P;D124P)
T5 chain: T1 chain with Y98P, Q124P


Experiments:
Assay in all cases: high-throughput RNA pulldown from lysate on Ni-NTA beads; HRP: 50 mM Tris pH 8, 150 mM NaCl, 1 mM beta-mercaptoethanol, 50 ug/ml BSA, 3 ug/ml yeast RNA, 0.5% heparin; ITC and FP: Tris pH 8, 200 mM KCl, 5% glycerol; MST: 50 mM Tris pH 8, 200 mM NaCl, 1 mM DTT, BSA, heparin, 0.05% Tween 20
Conditions in all cases: tags: N-terminal His-eGFP
[1] = molecular target: T1, GFP-9S library array, motif 4 ND …
[2] = molecular target: T2, GFP-9S library array, motif 4 ND …
[3] = molecular target: T3, GFP-9S library array, motif 4 ND …
[4] = molecular target: T4, GFP-9S library array, motif 4 ND …
[5] = molecular target: T5, GFP-9S library array, motif 4 ND …

Binder	Kd ([1]; label: 5' IRDye 800CW) [nM]	Kd ([2]; label: 5' IRDye 800CW) [nM]	Kd ([3]; label: 5' IRDye 800CW) [nM]	Kd ([4]; label: 5' IRDye 800CW) [nM]	Kd ([5]; label: 5' IRDye 800CW) [nM]	Kd ([1]; label: 5' Cy5) [nM]	Kd ([2]; label: 5' Cy5) [nM]	Kd ([3]; label: 5' Cy5) [nM]	Kd ([4]; label: 5' Cy5) [nM]	Kd ([5]; label: 5' Cy5) [nM]
AUUAAACGUGA (ssRNA) [IR-rpoA-A]	162	151	166	497	1420					
AUUACACGUGA (ssRNA) [Cy5-rpoA]						39.5	83.5	144	91.2	273
AUUAUACGUGA (ssRNA) [IR-rpoA-U]	103	174	167	152	561					
AUUAGACGUGA (ssRNA) [Cy5-rpoA-G]						49.8	73.5	126	124	326

From paper PMC8809517, “Cofactor-independent RNA editing by a synthetic S-type PPR protein”
